The results in this text go back to US20030207435A1.

Experiment [1] has as its target serpins of normal human plasma. Briefly: cell-based or functional assay.
In the next experiment the target is serpins of rabbit plasma. The experiment is described as follows: cell-based or functional assay.

B1: wild-type human activated protein C, P04070 43-197; P04070 212-461 (enzyme)
light: ANSFLEELRHSSLERECIEEICDFEEAKEIFQNVDDTLAFWSKHVDGDQCLVLPLEHPCASLCCGHGTCIDGIGSFSCDCRSGWEGRFCQREVSFLNCSLDNGGCTHYCLEEVGWRRCSCAPGYKLGDDLLQCHPAVKFPCGRPWKRMEKKRSHL
heavy: LIDGKMTRRGDSPWQVVLLDSKKKLACGAVLIHPSWVLTAAHCMDESKKLLVRLGEYDLRRWEKWELDLDIKEVFVHPNYSKSTTDNDIALLHLAQPATLSQTIVPICLPDSGLAERELNQAGQETLVTGWGYHSSREKEAKRNRTFVLNFIKIPVVPHNECSEVMSNMVSENMLCAGILGDRQDACEGDSGGPMVASFHGTWFLVGLVSWGEGCGLLHNYGVYTKVSRYLDWIHGHIRDKEAPQKSWAP
modifications: here or on the partner: Asn-linked carbohydrate at three sites; vitamin K-dependent gamma-carboxylation of nine glutamic acid residues within the amino-terminal 45 residues (gla-domain); one erythro-beta-hydroxy-Asp; Asn-linked carbohydrate
Turning to B1, the Inactivation in Plasma (t1/2 Relative to wt), Human (x (relative to wt)) in experiment [1] was determined as 1. The molecule further came in with an Inactivation in Plasma (t1/2 Relative to wt), Rabbit (x (relative to wt)) in the experiment with serpins of rabbit plasma of 1.

B2: activated human protein C derivative H10Q:S11G:Q32E:N33D:L194S, P04070 43-197; P04070 212-461 (enzyme)
light: ANSFLEELRQGSLERECIEEICDFEEAKEIFEDVDDTLAFWSKHVDGDQCLVLPLEHPCASLCCGHGTCIDGIGSFSCDCRSGWEGRFCQREVSFLNCSLDNGGCTHYCLEEVGWRRCSCAPGYKLGDDLLQCHPAVKFPCGRPWKRMEKKRSHL
heavy: LIDGKMTRRGDSPWQVVLLDSKKKSACGAVLIHPSWVLTAAHCMDESKKLLVRLGEYDLRRWEKWELDLDIKEVFVHPNYSKSTTDNDIALLHLAQPATLSQTIVPICLPDSGLAERELNQAGQETLVTGWGYHSSREKEAKRNRTFVLNFIKIPVVPHNECSEVMSNMVSENMLCAGILGDRQDACEGDSGGPMVASFHGTWFLVGLVSWGEGCGLLHNYGVYTKVSRYLDWIHGHIRDKEAPQKSWAP
modifications: here or on the partner: Asn-linked oligosaccharides; gamma-carboxy-glutamates in the gla-domain; one erythro-beta-hydroxy-Asp; Asn-linked oligosaccharide
B2 returned an Inactivation in Plasma (t1/2 Relative to wt), Human (x (relative to wt)) in experiment [1] of 5.9. In the experiment with serpins of rabbit plasma, this molecule returned an Inactivation in Plasma (t1/2 Relative to wt), Rabbit (x (relative to wt)) of 8.5.

B3: activated human protein C derivative S11G:Q32E:N33D:L194S:T254S, P04070 43-197; P04070 212-461 (enzyme)
light: ANSFLEELRHGSLERECIEEICDFEEAKEIFEDVDDTLAFWSKHVDGDQCLVLPLEHPCASLCCGHGTCIDGIGSFSCDCRSGWEGRFCQREVSFLNCSLDNGGCTHYCLEEVGWRRCSCAPGYKLGDDLLQCHPAVKFPCGRPWKRMEKKRSHL
heavy: LIDGKMTRRGDSPWQVVLLDSKKKSACGAVLIHPSWVLTAAHCMDESKKLLVRLGEYDLRRWEKWELDLDIKEVFVHPNYSKSTSDNDIALLHLAQPATLSQTIVPICLPDSGLAERELNQAGQETLVTGWGYHSSREKEAKRNRTFVLNFIKIPVVPHNECSEVMSNMVSENMLCAGILGDRQDACEGDSGGPMVASFHGTWFLVGLVSWGEGCGLLHNYGVYTKVSRYLDWIHGHIRDKEAPQKSWAP
modifications: here or on the partner: Asn-linked oligosaccharides; gamma-carboxy-glutamates in the gla-domain; one erythro-beta-hydroxy-Asp; Asn-linked oligosaccharide
Turning to B3, the Inactivation in Plasma (t1/2 Relative to wt), Human (x (relative to wt)) in experiment [1] turned out to be 13. In addition, the Inactivation in Plasma (t1/2 Relative to wt), Rabbit (x (relative to wt)) in the experiment with serpins of rabbit plasma was over 20.

B4: activated human protein C derivative H10Q:S11G:Q32E:N33D:L194S:T254S, P04070 43-197; P04070 212-461 (enzyme)
light: ANSFLEELRQGSLERECIEEICDFEEAKEIFEDVDDTLAFWSKHVDGDQCLVLPLEHPCASLCCGHGTCIDGIGSFSCDCRSGWEGRFCQREVSFLNCSLDNGGCTHYCLEEVGWRRCSCAPGYKLGDDLLQCHPAVKFPCGRPWKRMEKKRSHL
heavy: LIDGKMTRRGDSPWQVVLLDSKKKSACGAVLIHPSWVLTAAHCMDESKKLLVRLGEYDLRRWEKWELDLDIKEVFVHPNYSKSTSDNDIALLHLAQPATLSQTIVPICLPDSGLAERELNQAGQETLVTGWGYHSSREKEAKRNRTFVLNFIKIPVVPHNECSEVMSNMVSENMLCAGILGDRQDACEGDSGGPMVASFHGTWFLVGLVSWGEGCGLLHNYGVYTKVSRYLDWIHGHIRDKEAPQKSWAP
modifications: here or on the partner: Asn-linked oligosaccharides; gamma-carboxy-glutamates in the gla-domain; one erythro-beta-hydroxy-Asp; Asn-linked oligosaccharide
For B4, the Inactivation in Plasma (t1/2 Relative to wt), Human (x (relative to wt)) in experiment [1] came out at 8.5. This molecule showed an Inactivation in Plasma (t1/2 Relative to wt), Rabbit (x (relative to wt)) with serpins of rabbit plasma of over 20.

B5: activated human protein C derivative S11G:Q32E:N33D:L194S, P04070 43-197; P04070 212-461 (enzyme)
light: ANSFLEELRHGSLERECIEEICDFEEAKEIFEDVDDTLAFWSKHVDGDQCLVLPLEHPCASLCCGHGTCIDGIGSFSCDCRSGWEGRFCQREVSFLNCSLDNGGCTHYCLEEVGWRRCSCAPGYKLGDDLLQCHPAVKFPCGRPWKRMEKKRSHL
heavy: LIDGKMTRRGDSPWQVVLLDSKKKSACGAVLIHPSWVLTAAHCMDESKKLLVRLGEYDLRRWEKWELDLDIKEVFVHPNYSKSTTDNDIALLHLAQPATLSQTIVPICLPDSGLAERELNQAGQETLVTGWGYHSSREKEAKRNRTFVLNFIKIPVVPHNECSEVMSNMVSENMLCAGILGDRQDACEGDSGGPMVASFHGTWFLVGLVSWGEGCGLLHNYGVYTKVSRYLDWIHGHIRDKEAPQKSWAP
modifications: here or on the partner: Asn-linked oligosaccharides; gamma-carboxy-glutamates in the gla-domain; one erythro-beta-hydroxy-Asp; Asn-linked oligosaccharide
The molecule B5 had an Inactivation in Plasma (t1/2 Relative to wt), Human (x (relative to wt)) in experiment [1] of 5.8. For the same molecule, the Inactivation in Plasma (t1/2 Relative to wt), Rabbit (x (relative to wt)) in the experiment with serpins of rabbit plasma was found to be 8.5.
